Assay results from US20210300985A1 (published 2021).

Legend:
Test in all cases: competition binding; FIG. 35A
HLA-DRB1*1501 = HLA-DRB1*1501 (human)
HLA-DRB1*0701 = HLA-DRB1*0701 (human)
HLA-DRB1*1101 = HLA-DRB1*1101 (human)
HLA-DRB1*1301 = HLA-DRB1*1301 (human)
HLA-DRB1*0101 = HLA-DRB1*0101 (human)
HLA-DRB1*0401 = HLA-DRB1*0401 (human)
HLA-DRB1*0301 = HLA-DRB1*0301 (human)

Binder	IC50 (HLA-DRB1*1501) [nM]	IC50 (HLA-DRB1*0701) [nM]	IC50 (HLA-DRB1*1101) [µM]	IC50 (HLA-DRB1*1301) [µM]	IC50 (HLA-DRB1*0101) [nM]	IC50 (HLA-DRB1*0401) [µM]	IC50 (HLA-DRB1*0301) [µM]
SHEFHAINGMIYSLP [SEQ ID NO: 7 (SHEFHAINGMIYSLP)]	< 1000	< 1000	33.7	84.4	< 1000	30.6	–
ESNIMSTINGYVPES [SEQ ID NO: 5 (ESNIMSTINGYVPES)]	4220	2790	–	–	–	96.4	80.5
KIVFKNMASRPYSIY [SEQ ID NO: 3 (KIVFKNMASRPYSIY)]	2690	7030	4.36	2.96	2170	20.1	78.6
EKDIHSGLIGPLLI [SEQ ID NO: 6 (EKDIHSGLIGPLLI)]	2020	–	–	–	1920	–	–
